Where “and” joins values, the source holds several entries; their conditions need not be identical. Equal values may be shown once.
Assays:
[1] = target: GFP-FR (GFP fused to the GPI attachment signal of the folate receptor), expressed in MDCK cells; assay: number and brightness (N&B); live polarized MDCK cells, plasma membrane pool only: cycloheximide 90 min, then with or without EGTA still in the presence of cycloheximide
[2] = target: GFP-FR (GFP fused to the GPI attachment signal of the folate receptor), expressed in MDCK cells; assay: number and brightness (N&B); live polarized MDCK cells on filters, apical surface, CO2-independent medium pH 7.4; control cells and cells treated with latrunculin A (6 uM, 5 min), jasplakinolide (5 uM, 5 min) or blebbistatin (50 uM, 90 min); also after EGTA followed by calcium replenishment for 3 h; B-values ascribed to oligomer classes by a calibration curve of monomeric, dimeric and trimeric GFP
[3] = target: GFP-FR (GFP fused to the GPI attachment signal of the folate receptor), expressed in MDCK cells; assay: number and brightness (N&B); live polarized MDCK cells, Golgi pool: apical trypsin 25 ug/mL for 25 min to remove the surface pool, untreated (CTR), imaged at the Golgi level
[4] = target: GFP-FR, stably expressed in CHO cells; assay: number and brightness (N&B); live CHO cells, 2 days in culture, cell surface imaged at the cell periphery; untreated control

mean brightness (B), plasma membrane pool, control [1] | mean brightness (B), plasma membrane pool, upon EGTA [1] | brightness (B) [2] | brightness (B) upon latrunculin A [2] | mean brightness (B), control of the EGTA experiment [2] | stoichiometry N [2] | mean brightness (B), Golgi pool, control [3] | brightness (B) [4] | stoichiometry N [4] | Substance
1.19 | 1.2 | 1.21 | 1.23 | 1.29 | 3 and 4 | 1.2 | – | – | GFP-FR (GFP fused to the GPI attachment signal of the folate receptor), expressed in MDCK cells
– | – | – | – | – | – | – | 1.3 | 3 and 4 | GFP-FR, stably expressed in CHO cells

Source: paper PMC11106487
